A word on the EC50: it is the concentration at which the effect is half-maximal. Lower therefore signals an effect from little substance.

The test has as its target T1, TL1A (TNFSF15) (human, UniProt O95150).
T1 chain: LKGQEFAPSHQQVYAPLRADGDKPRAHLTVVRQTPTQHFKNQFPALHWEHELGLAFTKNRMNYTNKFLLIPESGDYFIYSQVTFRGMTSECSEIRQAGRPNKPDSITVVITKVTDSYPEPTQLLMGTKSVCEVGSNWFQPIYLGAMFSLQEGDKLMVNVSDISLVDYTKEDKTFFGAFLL
Briefly: ELISA.

B1: heavy chain 512 antibody (S228P, L235E) (antibody)
chain 1: not shown
chain 2: EIVLTQSPGTLSLSPGERATLSCRASSSVSYMYWYQQKPGQAPRPLIYATSNLASGIPDRFSGSGSGTDFTLTISRLEPEDFAVYYCQQWEGNPRTFGGGTKLEIKRTVAAPSVFIFPPSDEQLKSGTASVVCLLNNFYPREAKVQWKVDNALQSGNSQESVTEQDSKDSTYSLSSTLTLSKADYEKHKVYACEVTHQGLSSPVTKSFNRGEC
Molecule B1 registered an EC50 of 0.324 nM.

B2: heavy chain 513 antibody (S228P, F234A, L235A) (antibody)
chain 1: not shown
chain 2: B1 chain 2
Consider B2, for which the response was half-maximal at 0.252 nM (EC50).

The values above are taken from patent US20260328755 (published 2026).
